T1: human ICOS-mFc (Chimerigen) (human, UniProt Q9Y6W8 21-140)
T1 construct: also called human ICOS receptor; human ICOS Receptor; not shown: mouse Fc of the bought construct
T1 sequence: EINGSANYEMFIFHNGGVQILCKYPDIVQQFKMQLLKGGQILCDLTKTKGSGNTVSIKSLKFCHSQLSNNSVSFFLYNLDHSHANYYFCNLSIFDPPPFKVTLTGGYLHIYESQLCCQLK

T2: mouse ICOS-mFc (Chimerigen) (mouse, UniProt Q9WVS0 21-141, limits assumed)
T2 construct: also called mouse ICOS receptor; mouse ICOS Receptor; not shown: mouse Fc of the bought construct
T2 sequence: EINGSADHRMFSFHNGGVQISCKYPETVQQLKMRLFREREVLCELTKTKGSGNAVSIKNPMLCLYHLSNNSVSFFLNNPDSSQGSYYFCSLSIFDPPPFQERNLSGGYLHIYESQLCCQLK


Legend:
[1] = biological target: T1, human ICOS-mFc (Chimerigen); assay: HTRF neutralisation of Alexa 647 human B7-H2 binding to human ICOS-mFc; human IgG4.PE table; n = 1
Protocol: (§1) 5 μl of ICOS receptor (human ICOS-mFc, 20 nM, 5 nM final or mouse ICOS-mFc 4 nM, 1 nM final (Chimerigen)) was added to required wells. Plate was incubated for 1 hr at room temperature (RT).
(§2) Finally, 5 μl of anti-mouse IgG donor mAb (Southern Biotech) labelled with europium cryptate (Cis Bio), 40 nM, 10 nM final was added to each well and the assay was left in the dark at RT to incubate for a further 2 hours. After incubation, assay was read on Envision plate reader (Perkin Elmer) using a standard HTRF protocol. […] Titration curves and IC50 values [M] were plotted using Graphpad (Prism). IC50 values were calculated by first transforming the data using equation X=Log(X). The transformed data was then fitted using nonlinear regression, using fitting algorithm, log (inhibitor) vs. response—variable slope (four parameters).

[2] = biological target: T1, human ICOS-mFc (Chimerigen); assay: HTRF neutralisation of Alexa 647 human B7-H2 binding to human ICOS-mFc; human IgG4.PE; mean, n = 3
Protocol: as §1, §2

[3] = biological target: T2, mouse ICOS-mFc (Chimerigen); assay: HTRF neutralisation of Alexa 647 mouse B7-H2 binding to mouse ICOS-mFc; human IgG4.PE; mean, n = 3
Protocol: as §1, §2

Row | IC50 [1] [nM] | IC50 [2] [nM] | IC50 [3] [nM] | Binder
1 | 0.8 |  |  | STIM006 human IgG4.PE (antibody, V domains shown) VH: QVQLVESGGGLVKPGGSLRLSCAASGFTFSDYFMSWIRQAPGKGLEWISYISSSGSTIYYADSVRGRFTISRDNAKYSLYLQMNSLRSEDTAVYYCARDHYDGSGIYPLYYYYGLDVWGQGTTVTVSS VL: not shown
2 |  | 161 | 30 | STIM004 human IgG4.PE (antibody, V domains shown, Human IgG4.PE (null-effector) format) VH: EVQLVESGGGVVRPGGSLRLSCAASGLTFDDYGMSWVRQVPGKGLEWVSGINWNGDNTDYADSVKGRFTISRDNAKNSLYLQMNSLRAEDTALYYCARDYYGSGSYYNVPFDYWGQGTLVTVSS VL: not shown

From patent US20180066058A1 (published 2018)
